Experimental findings from a protein production outcome set (Wang et al. 2014) are described below.

This data set can be described thus: label from the status in PepcDB records.
For “MPQIYFSAAERRPKFVMKTGLSATEKNEVIKAAYRQIFERDITRAYSLSISDLESKVKNGDISMKEFVRRLAKSPLYQKQFYQPFINSRVIELAFRHILGRGPSSREEVQKYFSIISNGGLPALVDALVDSAEYSDYFGEETVPYLRGLEHHHHHH”, the protein production result is “failed”.

On to “MPQRNDRSRSTPTTSPKNNSWFRMQAGHQSDADIYIYDEIGFWGVTAKQFISDLNALGDITHINLNINSPGGDVFEGIAIFNALKTHGASITVYVDGVAASMASVIAMVGKPVIMPENSFMMIHKPFGFTGGDAEDMRTYADLLDKVEAVLLPAYAQKTGKTTDEIAAMLADETWMSGAECLAHGFADQVTPAVKAMACIQSKRTEEFKKMPESIRNMITPPRNSAPRVQDDGPAASRTPVQAAAPVVDENSIRAQVLAEQKARVNGINDLFAMFGGRYQTLQAQCLADPECSLEQAREKLLNEMGRESTPSNKNTPXHIYAGNGNFVGDGIRQALMARAGFEKTERDNVYNGMTLREYARMSLTERGIGVSSYNPMQMVGAAFTHSTSDFGNILLDVANKAILQGWEDAPETYEQWTRKGQLSDFKIAHRVGMGGFSALRQVREGAEYKYVTTGDKQATIALATYGELFSITRQAIINDDLNMLTDVPMKLGRAAKSTIADLVYAILTSNPKISTDNVSLFDKAKHANVLESAAMDVASLDKARQLMRVQKEGERHLNIRPAFVLVPTAMESVANQVIRSSSVKGADINAGIINPVKDFATVIAEPRLDDNSQTTFYLAASKGSDTIEVAYLNGVDTPYIDQMEGFSVDGVTTKVRIDAGVAPVDHRGLVKCTA”, for which the protein production entry is “failed”.

With “MPQRRPLRTMKWLIPGLWLASILFAHFRGRVRLSLSRQMLDHSVLLAPVNAFMVLTSRVPTTPYLTTSEIPELKVLDDNWETIRDEALKMAELRRIKAAERHDDIGFNSFFKYGWKRFYLKWYDARHPSAEELCPKTVAILKSLPKVKAAMFAELPPGGKLNPHRDPFSGSLRYHLGLATPNDDRCYIAVDGESYSWRDGESVVFDETYVHEAHNKSEGNRIILFCDVERPLKWRWAEAFNRWFGRVVMSAASSPNDAGDQTGAINKLTHAHWVIDQKRKQFKAWNRTVYKATKWGLIALVAIGFLAL”, the protein production entry is given as “failed”.

Turning to “MPQVETTSVFRADLLKEMESSTGTAPASTGAENLPAGSALLVVKRGPNAGARFLLDQPTTTAGRHPESDIFLDDVTVSRRHAEFRINEGEFEVVDVGSLNGTYVNREPRNAQVMQTGDEIQIGKFRLVFLAGPAELEHHHHHH”, the protein production result is reported as “not failed”.

For the sequence “MPRGLILATPQLPPDGTPFSARYDDVYHSTEGGLAQAHHVFLGGNGLPGGWQGKRSFTIVETGFGQGLNFLATWAAWRDDPQRCGRLDFVSVEKHPFDRAGLALVHAQEGALASLAEALRQAWPVPVPGVHRLVFDAGRVTLTLMLGDAETLLPQLSCAADAFYLDGFSPAKNPDLWQPGVFKQLARIARGGATLATYTAAGAVRHGLREAGFEVRKAPGFGRKRDMTVAAFPTHWRTRRGPAEAPVWPERHAIVLGAGLAGCSVAERLAARGWRITLIDEHEAPAGGASAHRAAAMHPHVSIDDSVLSRLSRAGNLLARRHWEALDRAGFATGFHPTGVLQLAEHADDAAEQQRIVQALGFPADFIAWLDAARAADRVGAGVPQGGWWFAQAGWVAPPDICRAALAAAGEAVELRWRTRIESLLRHDAGWRACDAQGNVIAHAPVVVLANSLDAVRLAPLASAALKPVRGQLTDVPVAALEDGVPWPRAVVCGDGYLLPRERGAPTVRVGSSFQPGETDPDARTADHAANLRRLAGLQPAHAAALARVDPARLLGYVGVRCVSANRLPLIGAVADEAAIMAPGFRLRGPHAALPRVPGLYAALAYGSRGLTWSVLGAELLAAQIDGGPLPLESELAAALDPGRFLMRALRHGKHAA”, the protein production result is given as “failed”.

As to “MPRVIPPENLGCPPFRALTFDSLGLIKVTEARGQERGIPTVVNTWGEMNASRSVLAASIDDRLRNPLLAVARKDGNVEVINPCNGDLHFSYSVFGDDGCSPEDNEISALHLFRKKIDDQTERSCTLLTCTKKGDVSLRSVKFPDAHGNSTDDASPKTWKACGSGEILVGKVDGSENFSLFGGKRVEANIWDLEQCTKIWSAKCPPKNNLGIFTPTWFTSATFLSKDDHRKFVTGTKSHQVRLYDISTQRRPVLSFDFRETAITSIAEDPDGHTIYVGNASADLASFDIRTGKLLGSFLGKCSGSIRSVVRHPQHQVIASCGLDRYLRVYDVKTRQLISAVFLKQHLTGLVFDSGFSGEETAVANTVAEAATEEKMTIMDQEDDETEKAPVKRKKSKKEKRSREIVFEGEDDEENEDEIEKAPVKTKKSKKEKRSREKVSEGEEKDELRSKKTREHKKKTKIVKHNQED”, the protein production result was “failed”.

As for “MPRYPVRPADHAQSAEGGVTAVDRALTLLTAFRVTDQTLSLSELSERASLVPSTVLRLLASLMHFGFVLRRPDGRYALGPAAARLNRVYAASFNLQDVVLPALQELVGQTRESASFHVRQGAHRLVLYRVSSPQPLSDQSHTGDLLPLDRGTGGHVLMAFSDTPGEFYEALRLRGYMASPVSDRSPELAGISAPVFDAQGMLAGALTLTMPVHRYKDAHIPVLREAAARLSAALGA”, the protein production entry is “failed”.

Regarding “MPSENPIGKTMKSIDEQSLHNARRLFESGDIDRIEVGTTAGLQQIHRYLFGGLYDFAGQIREDNISKGGFRFANAMYLKEALVKIEQMPERTFEEIIAKYVEMNIAHPFLEGNGRSTRIWLDLVLKKNLKKVVNWQNVSKTLYLQAMERSPVNDLELRFLLKDNLTDDVDNREIIFKGIEQSYYYEGYEKG”, the protein production entry is “not failed”.

As for “MPSFLEISPDKLNRLIGTPGAPRIIDVRTDEDFALDPRLVPGSIRRDHAEVASWADSIDADAVVVVCHRGAKLSHGVAAYLRHAGIEAESLAGGFEAWAAAGPAVPEAKLSRRDAQGRTVWVTRARPKIDRIACPWLIRRFIDPNAVFLFVPAPEVVAVGERFGAAPFDIEDVFWSHRGELCTFDVMVEEFGLASEPLLRLAQIVRAADTARLDLAPEASGLLAASLGLSRMYSDDLEQLEAGMLLYDAFFRWCRDATEETHNWPAPKKRALEHHHHHH”, the protein production result is reported as “not failed”.

Regarding “MPSIVKGIIPPVLTPMKSDRSIDFEALERLVEHLIAGGVDGLFALGSSGEVAFLSDEDRATVIREIVRIAAGRVPVYAGVIDMQVNRMLGHIKAAEEAGVD”, the protein production result is “not failed”.

Turning to “MPSLNQIFFGPPGTGKTYATVEATLQILDQPFLAKNAGSRSALKARFDELLAAGDVRFVTFHQSFSYEDFVEGLRATTDEQGQIRYEVVSGVFRSLCESVATELSGKYRAFKVGDRYGTGYKVTRATPDVVEIEKPQGKHLPIGMSLLNTLASYVDAGTFTIEELGNGRWDKKVPGSVLDPFLVNGYKNFLPSMVEHMLGKNEEGLFEPAPVQHSDAKVLIIDEINRGNVSRIFGELITLIEPSKRAGADEALEVTLPYSKERFSIPGNIHLIGTMNTADRSLAALDIALRRRFTFIEVPPNPELLDEVEVDGIAIDELLSLMNQRIAALLDRDHCLGHAYFMPLKDEPTLERLEGIFREQILPLLQEYFFEDWQRIQWVLNDQRKAPENSFLIQLSQDLIALFGDTVTVGQSNERWELNLPAFQKIESYLGVIDHNLKVGAPLEAKNVRTDGIDIRQSADGCIDVYRGGQHIKPTKPLLRELASKHGISSTSASGSELNTRSLGRKIIKFLSEQQG”, the protein production result is reported as “failed”.

On to “MPSLQDLYAAFRRIAPYTHRTPLLTSRLLDGLLGKRLLLKAEHLQKTGSFKARGALSKALALENPKGLLAVSSGNHAQGVAYAAQVLGVKALVVMPEDASPYKKACARAYGAEVVDRGVTAKNREEVARALQEETGYALIHPFDDPLVIAGQGTAGLELLAQAGRMGVFPGAVLAPVGGGGLLAGLATAVKALSPTTLVLGVEPEAADDAKRSLEAGRILRLEAPPRTRADGVRTLSLGERTFPILRERVDGILTVSEEALLEAERLLFTRTKQVVEPTGALPLAAVLEHGARLPQTLALLLSGGNRDFSP”, for which the protein production entry is reported as “not failed”.

Take “MPSPRLQHSKPPRRLSRAQKHSSGSSNTSTANRRAHLRLCLERLKVLIPLGPDCTRHTTLGLLNKAKAHIKKLEEAERKSQHQLENLEREQRFLKWRLEQLQGPQEMERIRMDSIGSTISSDRSDSEREEIEVDVESTEFSHGEVDNISTTSISDIDDHSSLPSIGSDEGYSSASVKLSFTS”: the protein production entry is reported as “failed”.

As to “MPSSSLDISSALMIISLCALIDILSPGVLTVTAYLLLTQPNQLSSRLFVFLFITQLGYFITGLLLYFGGNSLLKRIEQLSQFDFINWFYILLGAVLVLISFSKPKETAKKRLISFIPKNTTIKGMIILGIIVFLIEFVTALPYFYSIFLMNHQTIETTPAILIIIGYNLVMVLPSLLLLGVNIIFKERLQQFLIKIRSKLNEAPISSLLVATGVIGAVFFNIGLRGILN”, the protein production result is “failed”.

As for “MPSSSQYRRYQDPHHPSIPTPTTLFSQPSLEILGGGVAEELPELALCCDGTVVEGRSNCRCKARAVLPGGMRVRLSKTLAGILRHHPGRYGVRLTREGWARVSEVVEGLRKAGWSWVEEWHIVGVALHDPKGRYELRNGEIRARYGHSIPVNVEPLPGEPPPILYHGTTEEALPLIMERGIMRGRRLKVHLTSSLEDAVSTGRRHGNLVAVLLVDVECLRRRGLKVERMSKTVYTVDWVPPECIAEVRRESLGRSL”, the protein production entry was “not failed”.

Consider “MPSVSVNKQGIVKVNSALNMRSGPGSNYGVIGTLRNNDEVEIIKEVDGWYEIKFNGKSGYVSSQYIKVLEHHHHHH”, for which the protein production entry is reported as “not failed”.

For “MPSYGNLGRLGGRHEYGVLVAMTSSAELDRVRWAHQLRSYRIASVLRIGVVGLMVAAMVVGTSRSEWPQQIVLIGVYAVAALWALLLAYSASRRFFALRRFRSMGRLEPFAFTAVDVLILTGFQLLSTDGIYPLLIMILLPVLVGLDVSTRRAAVVLACTLVGFAVAVLGDPVMLRAIGWPETIFRFALYAFLCATALMVVRIEERHTRSVAGLSALRAELLAQTMTASEVLQRRIAEAIHDGPLQDVLAARQELIELDAVTPGDERVGRALAGLQSASERLRQATFELHPAVLEQVGLGPAVKQLAASTAQRSGIKISTDIDYPIRSGIDPIVFGVVRELLSNVVRHSGATTASVRLGITDEKCVLDVADDGVGVTGDTMARRLGEGHIGLASHRARVDAAGGVLVFLATPRGTHVCVELPLKR”, the protein production result was “failed”.

With “MPTERPTTTAPVSLRERRRTAAAREILDAAEQHIGEHGPAALSLRAVARGLGMTVQALYHYFPNRDALVTALITKAYGELSDVLQAAADSVRADPATPRPVAVAEAYRGWGVARPEHFQLLYGTPLRYYAAPAEGPTTQAVRRMGAIFQRELFAGFTPAQLAAAEVPALSPSYREHLEQLPMHAQGDLPPAAASLFLSAWGHVHGLVVLEVFGHTAFLGDHQAEVFRTSVRMMLEDIHRRIPAA”, the protein production result is given as “not failed”.

For “MPTETFFNLPEEKRSRLIDVLLDEFAQNDYDSVSINRITERAGIAKGSFYQYFADKKDCYLYLIQLGIEQKTAFLRQTPPASTTDMFAYLRWLLDVGIQFQFHNPRLAQIAYKALYDDVPLPAETMQVIRHGSFAYFKQLVEQGIADGSLVPDLDADTAAFVLNVVFTELGNHLIERFAVNPAELLREGGIVLLQPAMRRVIEQVIDILERGMRRR”, the protein production entry was “not failed”.

With “MPTICEFLGYKVYMFYQDHSPPHIHVIGKGFRAALSIPEGKLLAGTLPRRVQGVAKMWVRQEATALMQNWLRAEAGEVLQQVKPPEGWLEHHHHHH”, the protein production entry was “failed”.

Take “MPTIKDYYLPKRPTLLFSLHPEPTQAIINGTKILEYRRRFFARPFQAFVYTTGDNGGIQLFLRCDQGLQLVPEQLALVGALLQHDAPTTTAAYFEGAKAGLALPITAFTTLPNIPLAQLRRQFENFVTPRSYVFLDQPDRQAQLDWLLTQPCESLTILDWRKRYAALATLLQKLEHHHHHH”: the protein production entry is “not failed”.
